Molecular target: the molecule itself
Assay: negative-stain EM; TNKS2 SAM at 104 μM on carbon, 2% uranyl acetate; 3D refinement with D1 symmetry, projections compared with the SAM–PARP model and PDB 5JRT

B1: TNKS2 SAM (867–940), wild type (domain or fragment, human, UniProt Q9H2K2 867-940, looked up)
chain: EKKEVPGVDFSITQFVRNLGLEHLMDIFEREQITLDVLVEMGHKELKEIGINAYGHRHKLIKGVERLISGQQGL
notes: Tankyrase 2 (TNKS2), human, SAM domain, residues 867-940; also called SAM domain
B1: binds.
